Experimental data taken from paper PMC8989523 (Nucleic Acids Research, 2022).

Biological target: the molecule itself
Assay: dynamic light scattering

B1: hPXR LBD (residues 140–434) with an N-terminal His tag and an SRC-1 fragment tethered at the C-terminus (domain or fragment)
chain: VQGLTEEQRMMIRELMDAQMKTFDTTFSHFKNFRLPGVLSSGCELPESLQAPSREEAAKWSQVRKDLCSLKVSLQLRGEDGSVWNYKPPADSGGKEIFSLLPHMADMSTYMFKGIISFAKVISYFRDLPIEDQISLLKGAAFELCQLRFNTVFNAETGTWECGRLSYCLEDTAGGFQQLLLEPMLKFHYMLKKLQLHEEEYVLMQAISLFSPDRPGVLQHRVVDQLQEQFAITLKSYIECNRPQPAHRFLFLKIMAMLTELRSINAQHTQRLLRIQDIHPFATPLMQELFGITGSGGSGGSSHSSLTERHKILHRLLQEGSPS
stoichiometry N: 2
